The values below come from PMC6987189, “Native aggregation is a common feature among triosephosphate isomerases of different species” (Scientific Reports, 2020).

For this data set, the system named is O=C[C@H](O)COP(=O)(O)O. Briefly: purified protein. The class given is biochemical, Giardia duodenalis. The note with it: GAP to DHAP direction, 25 °C, 100 mM TEA, 10 mM EDTA, 0.2 mM NADH, GAP 0.3 to 3 mM.

Take GlTIM (Giardia duodenalis; C202A): the Km (commonly the concentration of substrate that gives half-maximal velocity) turned out to be 100 ± 10 µM; the kcat (in general, the maximal rate divided by the concentration of active sites) is 3280 ± 103 s⁻¹; the kcat/Km (commonly the second-order rate constant that governs catalysis at low substrate concentration) amounted to 2.9e+07 M⁻¹ s⁻¹.
